Entries after “also recorded” stand apart in the source; their conditions may differ.
What was measured:
uterine contractions = assay: clinical observation of pregnant women with symptoms of likely premature birth (cardiotocography, arterial pressure, heart rate); type: in vivo, human
Procedure: Three pregnant women having symptoms indicating the likelihood of premature birth have been observed while in their 34-36th week of pregnancy. […] Arterial pressure, heart rate and skin coloring were evaluated. The women were clearly aware of the contractions and of the pain caused by such contractions.
The women were administered 100 Units of synthetic Parathormone 1-34 (two vials according to Examples 1 and 2) by rapid infusion (10 minutes), diluted in 200 cc of physiological solution. Two blood samples were taken before and after infusion and the serum was frozen and stored at -20° C. for the evaluation of the mineral elements (calcium, phosphorous, magnesium, alkaline phosphatase, parathormone, progesterone, estradiol).

rat uterus = conditions: in vitro, studies reported in the literature; cited from earlier work
human myometrium = assay: in vitro motility of fragments of myometrium of pregnant women, contraction induced by oxytocin; conditions: PTH 8.5×10^-8 M, oxytocin 1×10^-2 U, myometrium taken during Caesarean birth, FIG. 2 vs FIG. 1
Source text: Experimental Trials on the in vitro motility of fragments of myometrium of pregnant women

[1] = test system: contractions induced by PGF2alpha; assay: contractions induced by PGF2alpha; type: in vivo; conditions: PGF2alpha 1 mg/kg; PTH 4×10^-4 mg/Kg; FIG. 4 vs FIG. 3
Source text: Furthermore. Parathormone, has also been essayed for the contractions induced by PGF2alpha according to the technique described in the British Journal of Pharmacology 93: 185-191 (1988).

[2] = three pregnant women, 34-36th week, 100 Units by rapid infusion (10 minutes)

Parathormone 1-34
arterial pressure and heart rate of the mother (uterine contractions; 100 Units by rapid infusion): did not show variations of worthwhile note
patient-reported uterine contractions and pain caused by the contractions (uterine contractions; 100 Units by rapid infusion, pain particularly in the lumbar-sacral region): immediate disappearance of uterine contractions and of pain
fetal heart beat (uterine contractions; cardiotocography, 40 minutes monitoring, 100 Units by rapid infusion, FIG. 5): did not show variations and remained within the normal limits
cardiotocography waves referring to uterine contractions (uterine contractions; period of monitoring 40 minutes, 100 Units by rapid infusion, FIG. 5): disappearance of waves referring to uterine contractions
efficacy on uterine contractility (uterine contractions; [2]): efficacy of Parathormone on uterine contractility
side effects in mother and fetus (uterine contractions; [2]): no side effects have been noted either in the mother or the fetus; also recorded: no side effects were noted in relation to the infusion of the drug

B1: Parathormone (protein, UniProt P01270 32-115, looked up)
Parathyroid hormone: SVSEIQLMHNLGKHLNSMERVEWLRKKLQDVHNFVALGAPLAPRDAGSQRPRKKEDNVLVESHEKSLGEADKADVNVLTKAKSQ
modifications: Parathyroid hormone
notes: intact (whole) human parathyroid hormone
action on contractility of the rat uterus induced by oxytocin, acetylcholine and prostaglandin (rat uterus): inhibitory action
effect on contraction of human myometrium induced by oxytocin (human myometrium): net inhibitory effect
effect on contraction of human myometrium induced by oxytocin (human myometrium; listed as intact human parathormone): inhibitory effect (flat trace)
effect on contractions induced by PGF2alpha (intensity and duration) [1]: clear inhibitory effect both in terms of intensity and duration
